Numbered stars: 1 amine (or outer) side, 2 acyl side, 3 side chain; on linkers, the order of the positions; unused ones are H or OH. Square brackets hold non-standard residues; d marks the D form. Ends that are not written are not given here. * marks the point of attachment. X2 = 4‑amino‑1‑((3-fluoro-4-methylbenzyl)glycyl)piperidine‑4‑carboxylic acid, Cc1ccc(CN(CC(=O)N2CCC(N[*:1])(C(=O)[*:2])CC2)[*:3])cc1F; X7 = 4‑amino‑1‑(N-methylcarbamimidoyl)piperidine‑4‑carboxylic acid, CNC(=N)N1CCC(N[*:1])(C(=O)[*:2])CC1; Apc(4-OMe) = 4-aminopiperidine-4-carboxylic acid residue N1-acylated by a methoxy-bearing benzylglycyl; DOTA = O=C(O)CN1CCN(CC(=O)O)CCN(CC(=O)*)CCN(CC(=O)O)CC1; Ala(9-anthryl) = N[C@@H](Cc1c2ccccc2cc2ccccc12)C(=O)O; Api(1-amidino) = N=C(N)N1CCC(N)(C(=O)O)CC1; HO(CH2CH2O)2CH2CH2CO = O=C(CCOCCOCCO)*; d2Nal = N[C@H](Cc1ccc2ccccc2c1)C(=O)O; 4Pal = N[C@@H](Cc1ccncc1)C(=O)O; Nle = CCCC[C@H](N)C(=O)O; APM = not defined here; Ahx = NCCCCCC(=O)O; azaGly = NNC(=O)O; βAla = NCCC(=O)O
Assays:
[1] = biological target: human kisspeptin receptor (KISS1R) (human) (UniProt Q969F8); test: radioligand competition, hKISS1R membranes; legend: C is >100 nM
Sequence of human kisspeptin receptor (KISS1R) (human) (Q969F8 whole entry): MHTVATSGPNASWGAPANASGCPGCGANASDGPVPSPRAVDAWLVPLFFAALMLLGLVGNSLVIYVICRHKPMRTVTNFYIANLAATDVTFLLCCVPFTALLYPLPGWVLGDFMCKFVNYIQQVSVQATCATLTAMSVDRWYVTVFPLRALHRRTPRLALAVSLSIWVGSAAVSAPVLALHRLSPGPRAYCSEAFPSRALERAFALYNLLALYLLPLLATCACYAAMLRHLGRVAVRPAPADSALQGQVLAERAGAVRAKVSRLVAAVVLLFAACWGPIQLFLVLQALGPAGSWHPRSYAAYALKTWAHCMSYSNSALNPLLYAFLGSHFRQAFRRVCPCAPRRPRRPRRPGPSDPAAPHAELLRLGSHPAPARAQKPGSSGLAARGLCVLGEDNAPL

[2] = biological target: human kisspeptin receptor (KISS1R) (human), Q969F8; test: as above
Sequence of human kisspeptin receptor (KISS1R) (human), Q969F8 (Q969F8 whole entry): as above

Ki [1] [nM]	Ki [2] [nM]	Binder
	> 100	ENTF[azaGly][dL][Apc(4-OMe)]F [Compound 239]
> 100		{DOTA-Ahx}-[dY][d2Nal]NTF[azaGly]L[4‑amino‑1‑((pyridin-4-ylmethyl)glycyl)piperidine‑4‑carboxylic acid][dW]-NH2 [Compound 370]
	> 100	{DOTA-APM}-F[azaGly]L[X2]H-NH2 (reading uncertain) [Compound 248]
> 100		{DOTA-Ahx}-[dY][d2Nal]NTF[azaGly]L[X7][dW]-NH2 (SMILES CNC(=N)N1CCC(NC(=O)[C@H](CC(C)C)NC(=O)NNC(=O)[C@H](Cc2ccccc2)NC(=O)[C@@H](NC(=O)[C@H](CC(N)=O)NC(=O)[C@@H](Cc2ccc3ccccc3c2)NC(=O)[C@@H](Cc2ccc(O)cc2)NC(=O)CCCCCNC(=O)CN2CCN(CC(=O)O)CCN(CC(=O)O)CCN(CC(=O)O)CC2)[C@@H](C)O)(C(=O)N[C@H](Cc2c[nH]c3ccccc23)C(N)=O)CC1) [Compound 319]
	> 100	{DOTA}-[βAla][dN][dN][dK][dE][dN]F[azaGly]L[X2]W-NH2 (SMILES Cc1ccc(CNCC(=O)N2CCC(NC(=O)[C@H](CC(C)C)NC(=O)NNC(=O)[C@H](Cc3ccccc3)NC(=O)[C@@H](CC(N)=O)NC(=O)[C@@H](CCC(=O)O)NC(=O)[C@@H](CCCCN)NC(=O)[C@@H](CC(N)=O)NC(=O)[C@@H](CC(N)=O)NC(=O)CCNC(=O)CN3CCN(CC(=O)O)CCN(CC(=O)O)CCN(CC(=O)O)CC3)(C(=O)N[C@@H](Cc3c[nH]c4ccccc34)C(N)=O)CC2)cc1F) [Compound 16]
	> 100	{HO(CH2CH2O)2CH2CH2CO}-K(DOTA)TF[azaGly]L[X2][4Pal]-NH2 (SMILES Cc1ccc(CNCC(=O)N2CCC(NC(=O)[C@H](CC(C)C)NC(=O)NNC(=O)[C@H](Cc3ccccc3)NC(=O)[C@@H](NC(=O)[C@H](CCCCNC(=O)CN3CCN(CC(=O)O)CCN(CC(=O)O)CCN(CC(=O)O)CC3)NC(=O)CCOCCOCCO)[C@@H](C)O)(C(=O)N[C@@H](Cc3ccncc3)C(N)=O)CC2)cc1F) [Compound 251]
	> 100	{DOTA}-[βAla][dN][dN][dE][dE][dN]F[azaGly]L[X2]W-NH2 (SMILES Cc1ccc(CNCC(=O)N2CCC(NC(=O)[C@H](CC(C)C)NC(=O)NNC(=O)[C@H](Cc3ccccc3)NC(=O)[C@@H](CC(N)=O)NC(=O)[C@@H](CCC(=O)O)NC(=O)[C@@H](CCC(=O)O)NC(=O)[C@@H](CC(N)=O)NC(=O)[C@@H](CC(N)=O)NC(=O)CCNC(=O)CN3CCN(CC(=O)O)CCN(CC(=O)O)CCN(CC(=O)O)CC3)(C(=O)N[C@@H](Cc3c[nH]c4ccccc34)C(N)=O)CC2)cc1F) [Compound 15]
	> 100	{DOTA}-F[azaGly]L[X2]W-NH2 (SMILES Cc1ccc(CNCC(=O)N2CCC(NC(=O)[C@H](CC(C)C)NC(=O)NNC(=O)[C@H](Cc3ccccc3)NC(=O)CN3CCN(CC(=O)O)CCN(CC(=O)O)CCN(CC(=O)O)CC3)(C(=O)N[C@@H](Cc3c[nH]c4ccccc34)C(N)=O)CC2)cc1F) [Compound 49]

Continued, binder first:

Binder	Ki [1] [nM]	Ki [2] [nM]
{DOTA}-[dY][Ala(9-anthryl)]NTF[azaGly][Nle][Api(1-amidino)][4Pal]-NH2 (SMILES CCCC[C@H](NC(=O)NNC(=O)[C@H](Cc1ccccc1)NC(=O)[C@@H](NC(=O)[C@H](CC(N)=O)NC(=O)[C@H](Cc1c2ccccc2cc2ccccc12)NC(=O)[C@@H](Cc1ccc(O)cc1)NC(=O)CN1CCN(CC(=O)O)CCN(CC(=O)O)CCN(CC(=O)O)CC1)[C@@H](C)O)C(=O)NC1(C(=O)N[C@@H](Cc2ccncc2)C(N)=O)CCN(C(=N)N)CC1) [Compound 123]	> 100	
{HO(CH2CH2O)2CH2CH2CO}-K(DOTA)ETF[azaGly]L[X2][4Pal]-NH2 (SMILES Cc1ccc(CNCC(=O)N2CCC(NC(=O)[C@H](CC(C)C)NC(=O)NNC(=O)[C@H](Cc3ccccc3)NC(=O)[C@@H](NC(=O)[C@H](CCC(=O)O)NC(=O)[C@H](CCCCNC(=O)CN3CCN(CC(=O)O)CCN(CC(=O)O)CCN(CC(=O)O)CC3)NC(=O)CCOCCOCCO)[C@@H](C)O)(C(=O)N[C@@H](Cc3ccncc3)C(N)=O)CC2)cc1F) [Compound 252]		> 100
{DOTA-Ahx}-TNRNFL[Api(1-amidino)]F-NH2 (SMILES CC(C)C[C@H](NC(=O)[C@H](Cc1ccccc1)NC(=O)[C@H](CC(N)=O)NC(=O)[C@H](CCCNC(=N)N)NC(=O)[C@H](CC(N)=O)NC(=O)[C@@H](NC(=O)CCCCCNC(=O)CN1CCN(CC(=O)O)CCN(CC(=O)O)CCN(CC(=O)O)CC1)[C@@H](C)O)C(=O)NC1(C(=O)N[C@@H](Cc2ccccc2)C(N)=O)CCN(C(=N)N)CC1) [Compound 199]		> 100
{DOTA-Ahx}-FGL[Api(1-amidino)]W-NH2 (SMILES CC(C)C[C@H](NC(=O)CNC(=O)[C@H](Cc1ccccc1)NC(=O)CCCCCNC(=O)CN1CCN(CC(=O)O)CCN(CC(=O)O)CCN(CC(=O)O)CC1)C(=O)NC1(C(=O)N[C@@H](Cc2c[nH]c3ccccc23)C(N)=O)CCN(C(=N)N)CC1) [Compound 3]		> 100
{DOTA-Ahx}-[dY][d2Nal]NTF[azaGly]L[4‑amino‑1‑(((tetrahydro-2H-thiopyran-4-yl)methyl)glycyl)piperidine‑4‑carboxylic acid][dW]-NH2 [Compound 375]	> 100	

— US20250312499A1, “KISSPEPTIN RECEPTOR (KISS1R) TARGETED THERAPEUTICS AND USES THEREOF” (priority 2024, published 2025)
